B1: AZIN with a C-terminal Clover (GFP) tag (natural protein)
chain: MKGFIDDANYSVGLLDEGTNLGNVIDNYVYEHTLTGKNAFFVGDLGKIVKKHSQWQNVVAQIKPFYTVKCNSAPAVLEILAALGTGFACSSKNEMALVQELGVPPENIIYISPCKQVSQIKYAAKVGVNILTCDNEIELKKIARNHPNAKVLLHIATEDNIGGEEGNMKFGTTLKNCRHLLECAKELDVQIIGVKFHVSSACKESQVYVHALSDARCVFDMAGEIGFTMNMLDIGGGFTGTEFQLEEVNHVISPLLDIYFPEGSGVKIISEPGSYYVSSAFTLAVNIIAKKVVENDKFPSGVEKTGSDEPAFMYYMNDGVYGSFASKLSEDLNTIPEVHKKYKEDEPLFTSSLWGPSCDELDQIVESCLLPELNVGDWLIFDNMGADSFHEPSAFNDFQRPAIYYMMSFSDWYEMQDAGITSDSMMKNFFFVPSCIQLSQEDSFSAEA
B2: antizyme-mRuby2 (antizyme with a C-terminal mRuby2 tag) (natural protein)
chain: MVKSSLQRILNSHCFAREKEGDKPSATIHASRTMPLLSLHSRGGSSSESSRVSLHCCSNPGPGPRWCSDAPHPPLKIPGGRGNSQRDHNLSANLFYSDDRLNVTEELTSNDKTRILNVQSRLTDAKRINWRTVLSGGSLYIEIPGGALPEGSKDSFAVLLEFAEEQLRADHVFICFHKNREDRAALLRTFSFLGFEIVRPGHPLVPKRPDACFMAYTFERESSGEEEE
B3: Clover-AZIN (antizyme inhibitor with an N-terminal Clover tag) (natural protein)
chain: B1 chain

Legend:
Experiment in all cases: FRET
[1] = target: B2
[2] = target: antizyme with an N-terminal mRuby2 tag (human, UniProt P54368 1-228)
Clover-AZIN A325N = Clover-AZIN A325N (human, UniProt O14977 1-448, A325N)

Sequence of antizyme with an N-terminal mRuby2 tag (P54368 whole entry): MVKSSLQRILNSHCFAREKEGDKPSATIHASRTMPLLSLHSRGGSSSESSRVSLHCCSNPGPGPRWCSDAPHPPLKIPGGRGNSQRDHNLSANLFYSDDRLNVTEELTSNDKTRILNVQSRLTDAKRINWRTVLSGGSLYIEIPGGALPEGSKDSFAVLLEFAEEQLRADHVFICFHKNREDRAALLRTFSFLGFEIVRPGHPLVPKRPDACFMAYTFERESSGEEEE

Binder | Kd [1] | Kd [2] | Kd (Clover-AZIN A325N)
B1 | 29 nM | 89 nM | –
B2 | – | – | 35.6 nM
B3 | – | 80 nM | –
